The results in this text go back to US20250084406A1 (University of California, published 2025).

The target in one assay is T1, 37B-VP16.
T1 construct: Expressed in S. cerevisiae; also called DHD37B fused to VP16; 37B DHD-AD
T1 chain: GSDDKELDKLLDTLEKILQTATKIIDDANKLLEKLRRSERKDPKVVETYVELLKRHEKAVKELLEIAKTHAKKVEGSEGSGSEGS
Kind of assay: split TF YFP reporter assay in S. cerevisiae (all-by-all matrix, FIG. 1D). A general note: A reporter such as luciferase makes a cellular process visible.

The target in a further assay is T2, 154B-VP16.
T2 construct: Expressed in S. cerevisiae; also called DHD154B fused to VP16
T2 chain: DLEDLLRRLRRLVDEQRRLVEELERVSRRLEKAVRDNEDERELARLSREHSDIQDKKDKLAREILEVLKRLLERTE
Kind of assay: competition in the split TF YFP reporter assay in yeast, layout of FIG. 2A (FIG. 2D).

Assay [1] deals with T3, DHD37B (fusion partner in the split TF assay not stated for this statement).
T3 construct: not shown: fused to VP16 or ZF43_8
T3 chain: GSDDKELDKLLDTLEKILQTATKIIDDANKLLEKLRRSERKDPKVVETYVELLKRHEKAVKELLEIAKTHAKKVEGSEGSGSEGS
Put plainly: split TF YFP reporter assay in S. cerevisiae (all-by-all matrix, FIG. 1D); orientation of the fusions not told.

The next assay concerns the target T4, 155B-VP16.
T4 construct: Expressed in S. cerevisiae; also called DHD155B fused to VP16
T4 chain: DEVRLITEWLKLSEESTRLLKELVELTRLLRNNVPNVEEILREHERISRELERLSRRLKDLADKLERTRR
Put plainly: split TF YFP reporter assay in S. cerevisiae (all-by-all matrix, FIG. 1D).

B1: 37A-ZF43_8 (designed binder)
chain: DSDEHLKKLKTFLENLRRHLDRLDKHIKQLRDILSENPEDERVKDVIDLSERSVRIVKTVIKIFEDSVRKKEGSEGSGSEGS
notes: Expressed in S. cerevisiae; also called DHD37A fused to ZF43_8; 37A DHD-DBD
B1: the binding result in the assay with 37B-VP16 was “binds”.

B2: 154A dominant negative (designed binder)
chain: TAEELLEVHKKSDRVTKEHLRVSEEILKVVEVLTRGEVSSEVLKRVLRKLEELTDKLRRVTEEQRRVVEKLN
notes: also called DN
As to B2, the binding result in the assay with 154B-VP16 is given as “binds”.

B3: DHD13B (fusion partner in the split TF assay not stated for this statement) (designed binder)
chain: GTEKRLLEEAERAHREQKEIIKKAQELHRRLEEIVRQSGSSEEAKKEAKKILEEIRELSKRSLELLREILYLSQEQKGSEGSGSEGS
notes: not shown: fused to VP16 or ZF43_8
On to B3, for which the binding result in assay [1] is on record as “binds”.

B4: 155A-ZF43_8 (designed binder)
chain: PEDDVVRIIKEDLESNREVLREQKEIHRILELVTRGEVSEEAIDRVLKRQEDLLKKQKESTDKARKVVEERR
notes: Expressed in S. cerevisiae; also called DHD155A fused to ZF43_8
In the case of B4, the binding result with 155B-VP16 is given as “binds”.
